Assay [1] has as its target wild-type apelin receptor tagged C-terminally with eGFP (human) (UniProt P35414). The experiment in a line: fluorescent ligand binding on cells (high content confocal imaging); CHO-K1 cells transiently transfected with receptor-eGFP; apelin647 300 nM or ELA647 1 µM in HBSS, 90 min, room temperature, washed and fixed; mean membrane fluorescence of eGFP-positive cells as % WT; non-specific binding with 10 µM [Pyr1]apelin-13.

In assay [2] the target is apelin receptor NxStaR (stabilised human apelin receptor) (human) (UniProt P35414). In words: SPR; Biacore 8K+; receptors immobilised on NTA chip (Ni-NTA capture and amine coupling); 10 °C; pH 6.0 buffer ([…] MES, […] NaCl, 0.02% DDM, 5% DMSO); single-cycle, four concentrations; 1:1 model.
For assay [3] the target is unchanged. The experiment in a line: SPR; Biacore 8K+; receptors immobilised on NTA chip (Ni-NTA capture and amine coupling); 10 °C; pH 7.5 buffer (0.01 M HEPES, […] NaCl, 0.02% DDM, 5% DMSO); single-cycle, four concentrations; 1:1 model. (In general: In SPR one partner is held on a chip, and binding of the other changes the refractive index at the surface.)
Assay [4] has the same target. In words: SPR; Biacore T200; receptor immobilised on NTA chip (Ni-NTA capture and amine coupling); 10 °C; 0.01 M HEPES pH 7.5, […] NaCl, 0.02% DDM, 5% DMSO; single-cycle, 6.25-100 nM for Apelin-13 and ΔC2; 1:1 model.

pKd: −log10 of the molar value.

Our source for the membrane ELA647 fluorescence (% WT), Kd and membrane apelin647 fluorescence (% WT) values is article PMC11680790, “Structural and functional determination of peptide versus small molecule ligand binding at the apelin receptor” (Nature Communications, 2024).

Sequence of wild-type apelin receptor tagged C-terminally with eGFP (human) (P35414 whole entry): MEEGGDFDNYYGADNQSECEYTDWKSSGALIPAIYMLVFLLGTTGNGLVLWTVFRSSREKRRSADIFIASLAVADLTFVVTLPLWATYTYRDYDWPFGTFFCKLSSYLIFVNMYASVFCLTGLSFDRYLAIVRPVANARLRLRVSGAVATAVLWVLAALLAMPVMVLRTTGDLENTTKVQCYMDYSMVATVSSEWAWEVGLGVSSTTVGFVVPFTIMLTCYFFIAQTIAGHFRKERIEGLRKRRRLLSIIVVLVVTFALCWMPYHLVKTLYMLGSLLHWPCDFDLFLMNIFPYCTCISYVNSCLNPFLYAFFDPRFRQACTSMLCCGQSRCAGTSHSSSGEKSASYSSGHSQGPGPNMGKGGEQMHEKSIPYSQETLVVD

The substance ELA647 fluorescently labelled peptide had a membrane ELA647 fluorescence (% WT) in assay [1] of 100 % WT.
As for “NXE'992, chimeric peptide (pyrazole-QRPRL[AIB]S[PipALA]VPFP)”, the pKd in assay [2] was 7.68; in assay [3], 8.49.
In assay [1], “apelin647 fluorescently labelled peptide” had a membrane apelin647 fluorescence (% WT) of 100 % WT.
“apelin-13 ΔC2 (C-terminally truncated apelin-13 ending with M11) (peptide)” showed a pKd in assay [4] of 8.24.

In general, pKd refers to the negative decadic logarithm of the Kd, by convention in mol/L. Higher therefore signals a small Kd.
